This is an account of results in US20240294623A1.

In the test the target is antigen of FIG. 44 (not named). Kind of test: SPR (Biacore), Fab, FIG. 44.

B1: Ab46 Fab (Fab, V domains shown)
VH: EVQLLESGGGLVQPGGSLRLSCAASGFTFADYAMTWVRQAPGKGLEWVSAISGSGAATYFADSVKGRFTISRDNSKNTLYLQMNSLRAEDTAVYYCARVSSGHWDYDYWGQGTLVTVSS
VL: DIQLTQSPSSLSASVGDRVTITCRASQSISSYLNWYQQKPGKAPKLLIYAASGLESGVPSRFSGSGSGTDFTLTISSLQPEDFATYYCQQTYGVPLTFGGGTKVEIK
B1 registered a fold longer bound than the reference antibody of over 50 fold and a t1/2 of over 2.17 h.
